Measured values taken from PMC10287724, “Structural basis of the interaction between BCL9-Pygo and LDB-SSBP complexes in assembling the Wnt enhanceosome” (Nature Communications, 2023).

Legend:
[1] = molecular target: GST-hPygo2(58-84) (human) (UniProt Q9BRQ0); experiment: BLI; GST-Pygo2(58-84) wt or mutant loaded on GST biosensors, quenched with free GST; wt or mutant MBP-LDB1-SSBP2 in solution (0.03-30 uM); Octet RED96, 30 °C; KD from steady-state analysis
[2] = molecular target: T1, MBP-LDB1(56–285)-SSBP2(1–94) complex, SSBP2 Y72A (human, UniProt Q86U70 56-285; P81877 1-94, Y72A); experiment: BLI
T1 sequence 1: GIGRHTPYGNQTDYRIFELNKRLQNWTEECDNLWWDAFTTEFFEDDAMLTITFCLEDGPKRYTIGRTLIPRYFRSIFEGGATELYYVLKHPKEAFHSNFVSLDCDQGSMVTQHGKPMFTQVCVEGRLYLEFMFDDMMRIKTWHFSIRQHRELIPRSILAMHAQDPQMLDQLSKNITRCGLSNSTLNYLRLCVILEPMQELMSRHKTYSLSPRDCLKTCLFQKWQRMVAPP
T1 sequence 2: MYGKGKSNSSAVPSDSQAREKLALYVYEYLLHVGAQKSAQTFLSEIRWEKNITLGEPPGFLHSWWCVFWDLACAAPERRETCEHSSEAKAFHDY

[3] = molecular target: T2, hBCL9ΔHD3-Pygo2 complex, Avi-tagged, biotinylated (human, UniProt O00512 1-1426; Q9BRQ0 1-406, lacking hBCL9(461–489) fragment, biotin on the Avi tag (BirA)); experiment: BLI; Octet RED96; biotinylated Avi-tagged BCL9-Pygo2 (wt or deletion) on SA biosensors, full-length LDB1-SSBP2 in solution at 1000, 300, 100, 30 nM; 30 °C; 20 mM Tris-HCl pH 8.0, 100 mM NaCl, 10 mM DTT, 10 mg/ml BSA; steady-state analysis; conditions: both partners purified
T2 construct: B-cell lymphoma 9 protein (BCL9), human, full length lacking HD3 (461-489); Pygopus 2 (Pygo2), human, full length; also called hBCL9^△HD3-Pygo2; HD3-deleted BCL9; source: HEK293S GnTI- cells, co-transfected, purified (Flag beads, Superose 6 SEC), biotinylated with BirA; not shown: Avi, C-terminal, kept
T2 sequence (O00512 other isoform, or with tags, fused parts or gaps with the stated changes, chain 1 of 2): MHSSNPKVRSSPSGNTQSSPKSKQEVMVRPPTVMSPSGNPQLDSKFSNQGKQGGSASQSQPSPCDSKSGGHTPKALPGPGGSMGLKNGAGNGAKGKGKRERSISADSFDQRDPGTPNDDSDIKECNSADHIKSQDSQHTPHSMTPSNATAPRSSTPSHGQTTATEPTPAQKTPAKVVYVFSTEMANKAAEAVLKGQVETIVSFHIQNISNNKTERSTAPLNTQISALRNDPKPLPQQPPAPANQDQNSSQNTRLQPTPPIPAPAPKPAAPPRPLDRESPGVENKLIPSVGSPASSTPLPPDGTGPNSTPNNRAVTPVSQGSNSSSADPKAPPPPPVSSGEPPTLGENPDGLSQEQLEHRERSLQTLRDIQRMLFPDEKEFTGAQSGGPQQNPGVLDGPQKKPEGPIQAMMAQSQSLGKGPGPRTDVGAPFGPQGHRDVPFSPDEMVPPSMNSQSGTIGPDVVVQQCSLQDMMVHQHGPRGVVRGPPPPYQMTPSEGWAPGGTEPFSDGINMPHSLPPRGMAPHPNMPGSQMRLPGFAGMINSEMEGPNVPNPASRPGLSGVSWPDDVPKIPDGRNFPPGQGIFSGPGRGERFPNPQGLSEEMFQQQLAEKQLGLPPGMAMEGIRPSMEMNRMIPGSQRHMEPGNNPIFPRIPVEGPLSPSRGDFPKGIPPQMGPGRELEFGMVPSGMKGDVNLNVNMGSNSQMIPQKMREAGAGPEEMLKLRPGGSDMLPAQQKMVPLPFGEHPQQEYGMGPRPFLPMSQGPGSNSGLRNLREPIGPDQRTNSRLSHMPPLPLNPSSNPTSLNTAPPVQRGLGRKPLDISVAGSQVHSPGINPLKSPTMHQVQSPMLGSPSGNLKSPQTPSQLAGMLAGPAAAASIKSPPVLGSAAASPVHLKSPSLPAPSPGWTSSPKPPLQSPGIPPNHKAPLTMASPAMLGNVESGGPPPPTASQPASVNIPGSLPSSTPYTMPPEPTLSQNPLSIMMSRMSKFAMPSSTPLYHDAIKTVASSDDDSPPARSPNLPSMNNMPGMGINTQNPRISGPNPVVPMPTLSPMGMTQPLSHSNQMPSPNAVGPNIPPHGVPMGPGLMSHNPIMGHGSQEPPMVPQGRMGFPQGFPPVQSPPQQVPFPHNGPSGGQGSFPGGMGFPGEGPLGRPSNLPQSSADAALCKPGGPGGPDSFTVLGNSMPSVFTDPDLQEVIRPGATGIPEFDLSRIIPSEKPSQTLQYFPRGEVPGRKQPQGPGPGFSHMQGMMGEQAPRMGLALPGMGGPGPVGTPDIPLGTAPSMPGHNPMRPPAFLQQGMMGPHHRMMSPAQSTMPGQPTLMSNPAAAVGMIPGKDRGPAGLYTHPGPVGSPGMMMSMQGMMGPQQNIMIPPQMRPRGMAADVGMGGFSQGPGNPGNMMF
T2 sequence (Q9BRQ0 whole entry, stated change not applied, chain 2 of 2, the tested form may be a part): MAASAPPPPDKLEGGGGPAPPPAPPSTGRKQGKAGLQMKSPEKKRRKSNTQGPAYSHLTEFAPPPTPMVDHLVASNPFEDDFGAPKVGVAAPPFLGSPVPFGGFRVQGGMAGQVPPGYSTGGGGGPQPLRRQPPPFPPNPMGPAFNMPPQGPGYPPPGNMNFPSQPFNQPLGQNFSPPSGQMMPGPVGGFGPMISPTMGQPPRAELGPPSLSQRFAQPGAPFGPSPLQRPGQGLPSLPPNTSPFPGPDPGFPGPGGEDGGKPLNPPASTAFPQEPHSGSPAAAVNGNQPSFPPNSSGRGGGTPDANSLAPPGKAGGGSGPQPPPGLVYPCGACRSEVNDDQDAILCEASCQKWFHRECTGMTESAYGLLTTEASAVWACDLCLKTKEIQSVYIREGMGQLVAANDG

[4] = molecular target: T3, Avi-tagged wt BCL9-Pygo2 complex, biotinylated (human, UniProt O00512 1-1426; Q9BRQ0 1-406, biotin on the Avi tag (BirA)); experiment: as above; conditions: both partners purified
T3 construct: B-cell lymphoma 9 protein (BCL9), human, full length; Pygopus 2 (Pygo2), human, full length; also called Biotinylated BCL9-Pygo2; recombinant BCL9-Pygo; source: HEK293S GnTI- cells, co-transfected, purified (Flag beads, Superose 6 SEC), biotinylated with BirA; not shown: Avi, C-terminal, kept
T3 sequence (O00512 whole entry, chain 1 of 2): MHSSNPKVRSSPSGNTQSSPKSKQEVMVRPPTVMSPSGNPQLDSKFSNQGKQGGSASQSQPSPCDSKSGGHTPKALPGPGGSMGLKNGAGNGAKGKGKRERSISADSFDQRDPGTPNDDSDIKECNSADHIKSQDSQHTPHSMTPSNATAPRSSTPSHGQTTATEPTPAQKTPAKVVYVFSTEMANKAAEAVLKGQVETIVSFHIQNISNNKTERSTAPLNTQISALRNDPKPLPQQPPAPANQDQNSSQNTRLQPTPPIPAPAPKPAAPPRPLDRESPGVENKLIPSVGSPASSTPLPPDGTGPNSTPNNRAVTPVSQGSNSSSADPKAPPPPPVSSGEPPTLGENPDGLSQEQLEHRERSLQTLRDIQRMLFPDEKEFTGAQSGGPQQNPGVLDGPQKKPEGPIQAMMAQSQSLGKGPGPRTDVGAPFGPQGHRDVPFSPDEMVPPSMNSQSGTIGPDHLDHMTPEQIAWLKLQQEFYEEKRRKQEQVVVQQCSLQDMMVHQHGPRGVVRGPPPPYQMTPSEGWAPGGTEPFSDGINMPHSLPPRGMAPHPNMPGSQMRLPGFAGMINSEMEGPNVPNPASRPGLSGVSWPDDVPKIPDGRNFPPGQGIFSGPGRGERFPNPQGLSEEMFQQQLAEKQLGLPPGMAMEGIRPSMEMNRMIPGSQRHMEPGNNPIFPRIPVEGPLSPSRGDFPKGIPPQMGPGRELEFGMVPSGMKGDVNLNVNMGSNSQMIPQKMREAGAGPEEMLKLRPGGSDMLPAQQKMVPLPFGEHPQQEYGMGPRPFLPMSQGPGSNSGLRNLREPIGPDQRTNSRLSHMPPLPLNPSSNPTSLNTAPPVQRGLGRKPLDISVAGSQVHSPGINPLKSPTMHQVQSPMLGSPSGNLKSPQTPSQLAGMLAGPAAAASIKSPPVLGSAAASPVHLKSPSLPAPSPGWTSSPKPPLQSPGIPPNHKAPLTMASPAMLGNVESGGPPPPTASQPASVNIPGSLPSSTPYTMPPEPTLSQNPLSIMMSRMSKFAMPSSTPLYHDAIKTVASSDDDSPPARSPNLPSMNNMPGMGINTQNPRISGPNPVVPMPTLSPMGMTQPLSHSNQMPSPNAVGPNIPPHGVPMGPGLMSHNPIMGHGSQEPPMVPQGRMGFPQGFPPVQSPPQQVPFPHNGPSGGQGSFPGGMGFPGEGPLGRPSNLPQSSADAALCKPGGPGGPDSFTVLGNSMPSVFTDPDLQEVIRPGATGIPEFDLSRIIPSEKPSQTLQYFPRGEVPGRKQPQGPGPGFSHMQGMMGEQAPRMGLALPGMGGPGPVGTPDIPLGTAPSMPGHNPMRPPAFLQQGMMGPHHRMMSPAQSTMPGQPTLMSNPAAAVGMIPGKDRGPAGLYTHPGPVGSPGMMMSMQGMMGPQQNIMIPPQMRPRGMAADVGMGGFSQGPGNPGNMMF
T3 sequence (Q9BRQ0 whole entry, chain 2 of 2): as the sequence (Q9BRQ0 whole entry, stated change not applied, chain 2 of 2, the tested form may be a part) above

[5] = molecular target: hBCL9ΔHD3-Pygo2 complex, Avi-tagged, biotinylated (human, UniProt O00512 1-1426; Q9BRQ0 1-406, lacking hBCL9(461–489) fragment, biotin on the Avi tag (BirA)); experiment: BLI
[6] = molecular target: the molecule itself; experiment: crystal structure; Pygo2(58–84) peptide incubated with LDB1-SSBP2 (co-expressed, co-purified) at 5:1; hanging drop, 100 mM Li2SO4, 100 mM sodium citrate pH 5.6, 1% PEG400, 10 mM DTT, microseeding; 2.45 Å

MBP-LDB1(56-285)-SSBP2(1-94) Y72A complex (from UniProt Q86U70 56-285; P81877 1-94)
Kd [1]: 22 µM

LTEFAPPPTPMVDHLVASNPFEDDFGA (domain or fragment) [GST-Pygo2(58–84)]
Kd [2]: 22 µM

B1: LDB1-SSBP2 complex (full-length human proteins) (complex)
chain 1: MSVGCACPGCSSKSFKLYSPKEPPNGNAFPPFHPGTMLDRDVGPTPMYPPTYLEPGIGRHTPYGNQTDYRIFELNKRLQNWTEECDNLWWDAFTTEFFEDDAMLTITFCLEDGPKRYTIGRTLIPRYFRSIFEGGATELYYVLKHPKEAFHSNFVSLDCDQGSMVTQHGKPMFTQVCVEGRLYLEFMFDDMMRIKTWHFSIRQHRELIPRSILAMHAQDPQMLDQLSKNITRCGLSNSTLNYLRLCVILEPMQELMSRHKTYSLSPRDCLKTCLFQKWQRMVAPPAEPTRQQPSKRRKRKMSGGSTMSSGGGNTNNSNSKKKSPASTFALSSQVPDVMVVGEPTLMGGEFGDEDERLITRLENTQFDAANGIDDEDSFNNSPALGANSPWNSKPPSSQESKSENPTSQASQ
chain 2: MYGKGKSNSSAVPSDSQAREKLALYVYEYLLHVGAQKSAQTFLSEIRWEKNITLGEPPGFLHSWWCVFWDLYCAAPERRETCEHSSEAKAFHDYSAAAAPSPVLGNIPPGDGMPVGPVPPGFFQPFMSPRYPGGPRPPLRIPNQALGGVPGSQPLLPSGMDPTRQQGHPNMGGPMQRMTPPRGMVPLGPQNYGGAMRPPLNALGGPGMPGMNMGPGGGRPWPNPTNANSIPYSSASPGNYVGPPGGGGPPGTPIMPSPADSTNSGDNMYTLMNAVPPGPNRPNFPMGPGSDGPMGGLGGMESHHMNGSLGSGDMDSISKNSPNNMSLSNQPGTPRDDGEMGGNFLNPFQSESYSPSMTMSV
notes: the discussion speaks of a 2:4 (LDB1:SSBP2) stoichiometry of the LDB1-SSBP2 core complex; not measured for the full-length complex; also called ChiLS; full-length LDB1-SSBP2 complex; source: HEK293S GnTI- cells, co-transfected, purified (Flag beads, Superose 6 SEC)
binding result [3]: binds
Kd [4]: 0.032 µM
Kd [5]: 0.039 µM

B2: human SSBP2(1–94), tag removed (domain or fragment, UniProt P81877 1-94, looked up)
chain: MYGKGKSNSSAVPSDSQAREKLALYVYEYLLHVGAQKSAQTFLSEIRWEKNITLGEPPGFLHSWWCVFWDLYCAAPERRETCEHSSEAKAFHDY
notes: chain of the crystallised complex; not shown: His, N-terminal, cleaved
binding result [6]: binds

B3: human LDB1(56–285), tags removed (domain or fragment, UniProt Q86U70 56-285, looked up)
chain: GIGRHTPYGNQTDYRIFELNKRLQNWTEECDNLWWDAFTTEFFEDDAMLTITFCLEDGPKRYTIGRTLIPRYFRSIFEGGATELYYVLKHPKEAFHSNFVSLDCDQGSMVTQHGKPMFTQVCVEGRLYLEFMFDDMMRIKTWHFSIRQHRELIPRSILAMHAQDPQMLDQLSKNITRCGLSNSTLNYLRLCVILEPMQELMSRHKTYSLSPRDCLKTCLFQKWQRMVAPP
notes: chain of the crystallised complex; source: E. coli BL21 (DE3), co-expressed with SSBP2(1–94), purified (Ni-NTA, TEV cleavage, HiTrap Q, Superdex 200); not shown: His, N-terminal, cleaved; MBP, N-terminal, cleaved
binding result [6]: binds
